This note sets out measurements from ChEMBL document CHEMBL1138864, “Synthesis of novel caspase inhibitors for characterization of the active caspase proteome in vitro and in vivo” (J Med Chem, 2006).

Broadly, the Km is the concentration of substrate that gives half-maximal velocity.

Holding throughout (conditions): Homo sapiens
Substrate in series [1]: Cc1cccc(C)c1C(=O)OCC(=O)[C@H](CC(=O)O)NC(=O)[C@H](CCCCNC(=O)CCCCCNC(=O)CCCCC1SC[C@@H]2NC(=O)N[C@H]12)NC(=O)[C@H](CCC(=O)O)NC(=O)OCc1ccccc1
Description: Inhibition of human caspase 1
Substrate in series [2]: Cc1cccc(C)c1C(=O)OCC(=O)[C@H](CC(=O)O)NC(=O)[C@H](CCCCNC(=O)CCCCCNC(=O)CCCCC1SC[C@@H]2NC(=O)N[C@H]12)NC(=O)[C@H](CCC(=O)O)NC(=O)OCc1ccccc1
The source holds these as a separate data set.
Description: Inhibition of human caspase 5

Substrate in series [3]: Cc1cccc(C)c1C(=O)OCC(=O)[C@H](CC(=O)O)NC(=O)[C@H](CCCCNC(=O)CCCCCNC(=O)CCCCC1SC[C@@H]2NC(=O)N[C@H]12)NC(=O)[C@H](CCC(=O)O)NC(=O)OCc1ccccc1
This is another data set of the same source.
Description: Inhibition of human caspase 4

Substrate in series [4]: Cc1cccc(C)c1C(=O)OCC(=O)[C@H](CC(=O)O)NC(=O)[C@H](CCCCNC(=O)CCCCCNC(=O)CCCCC1SC[C@@H]2NC(=O)N[C@H]12)NC(=O)[C@H](CCC(=O)O)NC(=O)OCc1ccccc1
The source holds these as a separate data set.
Description: Inhibition of human caspase 7

Substrate in series [5]: Cc1cccc(C)c1C(=O)OCC(=O)[C@H](CC(=O)O)NC(=O)[C@H](CCCCNC(=O)CCCCCNC(=O)CCCCC1SC[C@@H]2NC(=O)N[C@H]12)NC(=O)[C@H](CCC(=O)O)NC(=O)OCc1ccccc1
This is another data set of the same source.
Description: Inhibition of human caspase 2

Substrate in series [6]: Cc1cccc(C)c1C(=O)OCC(=O)[C@H](CC(=O)O)NC(=O)[C@H](CCCCNC(=O)CCCCCNC(=O)CCCCC1SC[C@@H]2NC(=O)N[C@H]12)NC(=O)[C@H](CCC(=O)O)NC(=O)OCc1ccccc1
This is another data set of the same source.
Description: Inhibition of human caspase 8

Substrate in series [7]: Cc1cccc(C)c1C(=O)OCC(=O)[C@H](CC(=O)O)NC(=O)[C@H](CCCCNC(=O)CCCCCNC(=O)CCCCC1SC[C@@H]2NC(=O)N[C@H]12)NC(=O)[C@H](CCC(=O)O)NC(=O)OCc1ccccc1
The source holds these as a separate data set.
Description: Inhibition of human caspase 3

Substrate in series [8]: Cc1cccc(C)c1C(=O)OCC(=O)[C@H](CC(=O)O)NC(=O)[C@H](CCCCNC(=O)CCCCCNC(=O)CCCCC1SC[C@@H]2NC(=O)N[C@H]12)NC(=O)[C@H](CCC(=O)O)NC(=O)OCc1ccccc1
Description: Inhibition of human caspase 6
The source holds these as a separate data set.

B1: Caspase-1 (Homo sapiens), P29466 (protein)
chain: MADKVLKEKRKLFIRSMGEGTINGLLDELLQTRVLNKEEMEKVKRENATVMDKTRALIDSVIPKGAQACQICITYICEEDSYLAGTLGLSADQTSGNYLNMQDSQGVLSSFPAPQAVQDNPAMPTSSGSEGNVKLCSLEEAQRIWKQKSAEIYPIMDKSSRTRLALIICNEEFDSIPRRTGAEVDITGMTMLLQNLGYSVDVKKNLTASDMTTELEAFAHRPEHKTSDSTFLVFMSHGIREGICGKKHSEQVPDILQLNAIFNMLNTKNCPSLKDKPKVIIIQACRGDSPGVVWFKDSVGVSGNLSLPTTEEFEDDAIKKAHIEKDFIAFCSSTPDNVSWRHPTMGSVFIGRLIEHMQEYACSCDVEEIFRKVRFSFEQPDGRAQMPTTERVTLTRCFYLFPGH
Turning to B1, the Michaelis-Menten constant (Km) in series [1] came to 100 µM.

B2: Caspase-5 (Homo sapiens), P51878 (protein)
chain: MAEDSGKKKRRKNFEAMFKGILQSGLDNFVINHMLKNNVAGQTSIQTLVPNTDQKSTSVKKDNHKKKTVKMLEYLGKDVLHGVFNYLAKHDVLTLKEEEKKKYYDTKIEDKALILVDSLRKNRVAHQMFTQTLLNMDQKITSVKPLLQIEAGPPESAESTNILKLCPREEFLRLCKKNHDEIYPIKKREDRRRLALIICNTKFDHLPARNGAHYDIVGMKRLLQGLGYTVVDEKNLTARDMESVLRAFAARPEHKSSDSTFLVLMSHGILEGICGTAHKKKKPDVLLYDTIFQIFNNRNCLSLKDKPKVIIVQACRGEKHGELWVRDSPASLALISSQSSENLEADSVCKIHEEKDFIAFCSSTPHNVSWRDRTRGSIFITELITCFQKYSCCCHLMEIFRKVQKSFEVPQAKAQMPTIERATLTRDFYLFPGN
Turning to B2, in series [2], the Michaelis-Menten constant (Km) amounted to 2500 µM.

B3: Caspase-4 (Homo sapiens), P49662 (protein)
chain: MAEGNHRKKPLKVLESLGKDFLTGVLDNLVEQNVLNWKEEEKKKYYDAKTEDKVRVMADSMQEKQRMAGQMLLQTFFNIDQISPNKKAHPNMEAGPPESGESTDALKLCPHEEFLRLCKERAEEIYPIKERNNRTRLALIICNTEFDHLPPRNGADFDITGMKELLEGLDYSVDVEENLTARDMESALRAFATRPEHKSSDSTFLVLMSHGILEGICGTVHDEKKPDVLLYDTIFQIFNNRNCLSLKDKPKVIIVQACRGANRGELWVRDSPASLEVASSQSSENLEEDAVYKTHVEKDFIAFCSSTPHNVSWRDSTMGSIFITQLITCFQKYSWCCHLEEVFRKVQQSFETPRAKAQMPTIERLSMTRYFYLFPGN
In the case of B3, the Michaelis-Menten constant (Km) in series [3] is 1100 µM.

B4: Caspase-7 (Homo sapiens), P55210 (protein)
chain: MADDQGCIEEQGVEDSANEDSVDAKPDRSSFVPSLFSKKKKNVTMRSIKTTRDRVPTYQYNMNFEKLGKCIIINNKNFDKVTGMGVRNGTDKDAEALFKCFRSLGFDVIVYNDCSCAKMQDLLKKASEEDHTNAACFACILLSHGEENVIYGKDGVTPIKDLTAHFRGDRCKTLLEKPKLFFIQACRGTELDDGIQADSGPINDTDANPRYKIPVEADFLFAYSTVPGYYSWRSPGRGSWFVQALCSILEEHGKDLEIMQILTRVNDRVARHFESQSDDPHFHEKKQIPCVVSMLTKELYFSQ
Take B4: the Michaelis-Menten constant (Km) in series [4] is 230 µM.

B5: Caspase-2 (Homo sapiens), P42575 (protein)
chain: MAAPSAGSWSTFQHKELMAADRGRRILGVCGMHPHHQETLKKNRVVLAKQLLLSELLEHLLEKDIITLEMRELIQAKVGSFSQNVELLNLLPKRGPQAFDAFCEALRETKQGHLEDMLLTTLSGLQHVLPPLSCDYDLSLPFPVCESCPLYKKLRLSTDTVEHSLDNKDGPVCLQVKPCTPEFYQTHFQLAYRLQSRPRGLALVLSNVHFTGEKELEFRSGGDVDHSTLVTLFKLLGYDVHVLCDQTAQEMQEKLQNFAQLPAHRVTDSCIVALLSHGVEGAIYGVDGKLLQLQEVFQLFDNANCPSLQNKPKMFFIQACRGDETDRGVDQQDGKNHAGSPGCEESDAGKEKLPKMRLPTRSDMICGYACLKGTAAMRNTKRGSWYIEALAQVFSERACDMHVADMLVKVNALIKDREGYAPGTEFHRCKEMSEYCSTLCRHLYLFPGHPPT
For B5, in series [5], the Km stood at 560 µM.

B6: Caspase-8 (Homo sapiens), Q14790 (protein)
chain: MDFSRNLYDIGEQLDSEDLASLKFLSLDYIPQRKQEPIKDALMLFQRLQEKRMLEESNLSFLKELLFRINRLDLLITYLNTRKEEMERELQTPGRAQISAYRVMLYQISEEVSRSELRSFKFLLQEEISKCKLDDDMNLLDIFIEMEKRVILGEGKLDILKRVCAQINKSLLKIINDYEEFSKERSSSLEGSPDEFSNGEELCGVMTISDSPREQDSESQTLDKVYQMKSKPRGYCLIINNHNFAKAREKVPKLHSIRDRNGTHLDAGALTTTFEELHFEIKPHDDCTVEQIYEILKIYQLMDHSNMDCFICCILSHGDKGIIYGTDGQEAPIYELTSQFTGLKCPSLAGKPKVFFIQACQGDNYQKGIPVETDSEEQPYLEMDLSSPQTRYIPDEADFLLGMATVNNCVSYRNPAEGTWYIQSLCQSLRERCPRGDDILTILTEVNYEVSNKDDKKNMGKQMPQPTFTLRKKLVFPSD
B6: the Km in series [6] came out at 140 µM.

B7: Caspase-3 (Homo sapiens), P42574 (protein)
chain: MENTENSVDSKSIKNLEPKIIHGSESMDSGISLDNSYKMDYPEMGLCIIINNKNFHKSTGMTSRSGTDVDAANLRETFRNLKYEVRNKNDLTREEIVELMRDVSKEDHSKRSSFVCVLLSHGEEGIIFGTNGPVDLKKITNFFRGDRCRSLTGKPKLFIIQACRGTELDCGIETDSGVDDDMACHKIPVEADFLYAYSTAPGYYSWRNSKDGSWFIQSLCAMLKQYADKLEFMHILTRVNRKVATEFESFSFDATFHAKKQIPCIVSMLTKELYFYH
Regarding B7, in series [7], the Km is 74 µM.

B8: Caspase-6 (Homo sapiens), P55212 (protein)
chain: MSSASGLRRGHPAGGEENMTETDAFYKREMFDPAEKYKMDHRRRGIALIFNHERFFWHLTLPERRGTCADRDNLTRRFSDLGFEVKCFNDLKAEELLLKIHEVSTVSHADADCFVCVFLSHGEGNHIYAYDAKIEIQTLTGLFKGDKCHSLVGKPKIFIIQACRGNQHDVPVIPLDVVDNQTEKLDTNITEVDAASVYTLPAGADFLMCYSVAEGYYSHRETVNGSWYIQDLCEMLGKYGSSLEFTELLTLVNRKVSQRRVDFCKDPSAIGKKQVPCFASMLTKKLHFFPKSN
For B8, in series [8], the Michaelis-Menten constant (Km) was found to be 220 µM.
